Results on eight molecules are retold here after patent publication US12365732 (23ANDME, dated 2025).

Broadly, the Kd is the equilibrium constant for the complex coming apart. A low value points to higher affinity. By koff is commonly meant a measure of how fast the partners let go of each other. High values mean a short-lived complex, low ones a long-lived complex. As a reminder, the kon is the second-order rate constant of association.

Test [1] addresses T1, hu-CD96 isoform 1 on HEK293T cells (human, UniProt P40200 22-585).
T1 construct: Origene RC213845, transient expression; also called HEK293T-CD96 (iso1)
T1 sequence: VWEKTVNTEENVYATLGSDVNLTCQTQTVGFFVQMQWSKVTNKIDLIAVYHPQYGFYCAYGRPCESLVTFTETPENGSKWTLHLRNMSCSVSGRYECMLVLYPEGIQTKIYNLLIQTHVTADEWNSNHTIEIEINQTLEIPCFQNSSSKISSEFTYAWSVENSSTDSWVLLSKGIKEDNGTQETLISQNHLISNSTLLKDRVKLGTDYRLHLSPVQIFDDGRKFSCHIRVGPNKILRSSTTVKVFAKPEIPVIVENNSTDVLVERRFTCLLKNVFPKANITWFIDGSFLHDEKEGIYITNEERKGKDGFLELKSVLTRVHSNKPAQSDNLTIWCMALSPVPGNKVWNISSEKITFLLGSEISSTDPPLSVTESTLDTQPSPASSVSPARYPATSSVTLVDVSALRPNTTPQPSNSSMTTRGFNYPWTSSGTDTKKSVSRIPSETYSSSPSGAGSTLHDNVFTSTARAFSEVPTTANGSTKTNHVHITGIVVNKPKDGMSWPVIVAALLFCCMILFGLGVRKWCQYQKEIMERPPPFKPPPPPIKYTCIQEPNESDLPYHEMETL
As to the kind of experiment: FACS, Ab 2 nM. How it is done: (§1) Isoform 1 of hu-CD96 (Origene, catalog #RC213845) was transiently expressed in HEK293T cells following standard lipofectamine or Fugene transfection protocol. […] Cells were washed, and binding was detected by incubation with anti-mouse IgG-FITC (Biolegend, catalog #406001) for 20 minutes at 4° C. Cell binding was analyzed by flow cytometry with a CytoFLEX (Beckman Coulter). Binding curves were calculated as a percentage of cells positive for bound antibody.
Background: A flow cytometer gives signals particle by particle.

In test [2] the target is T2, hu-CD96 isoform 2 on CHO cells (human, UniProt P40200 22-585).
T2 construct: also called CHO-CD96 (isoform 2); CD96-CHOs
T2 sequence: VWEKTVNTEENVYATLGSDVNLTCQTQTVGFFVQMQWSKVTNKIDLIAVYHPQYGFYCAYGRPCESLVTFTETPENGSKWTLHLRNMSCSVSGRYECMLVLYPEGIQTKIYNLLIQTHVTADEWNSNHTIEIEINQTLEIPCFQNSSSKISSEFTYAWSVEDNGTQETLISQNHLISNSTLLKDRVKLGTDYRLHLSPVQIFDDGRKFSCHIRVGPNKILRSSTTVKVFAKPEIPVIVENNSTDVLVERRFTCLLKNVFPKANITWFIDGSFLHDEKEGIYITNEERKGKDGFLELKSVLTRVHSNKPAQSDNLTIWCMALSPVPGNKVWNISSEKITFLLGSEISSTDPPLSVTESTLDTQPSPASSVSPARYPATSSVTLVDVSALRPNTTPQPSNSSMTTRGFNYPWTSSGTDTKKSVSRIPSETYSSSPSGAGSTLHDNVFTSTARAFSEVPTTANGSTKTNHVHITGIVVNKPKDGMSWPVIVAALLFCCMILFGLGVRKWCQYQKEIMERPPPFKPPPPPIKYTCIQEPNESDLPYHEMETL
As to the kind of experiment: FACS, Ab 0.4 nM. How it is done: as §1
Isoform 2 of hu-CD96 (DNA construct: Origene, catalog #RC221005) was expressed on a single-cell-clone-derived CHO stable cell line. Binding of the anti-CD96 antibodies to the CHO cells were determined as described above with isoform 1 of hu-CD96.

Another test has as its target huCD96D1-Fc (human). Kind of test: Octet, antibody on anti-Fc sensors. How it is done: Domain Binding Site Mapping mAb1.v7 and h10G1 were determined to bind the D1 domain of CD96. Epitope mapping experiments were performed on an OctetRed96 by capturing the antibodies on anti-Fc Octet sensors (ForteBio) and testing their binding to recombinant huCD96D1-Fc and huCD96D1D3.
(In general: In BLI a coated tip is dipped into the sample, and binding shifts an interference pattern.)

For the next test, the target named is T3, hu-CD96 Fc (human, biotinylated in Table 16).
T3 construct: also called biotinylated hu-CD96-Fc
Kind of test: SPR 37C, biotin-CD96-Fc captured, IgG analyte. How it is done:
(§2) Briefly, a 1:4 dilution of Biotin CAPture Reagent (GE Healthcare) into HBS-EP buffer (0.01 M HEPES pH 7.4, 0.15 M NaCl, 3 mM EDTA, 0.005% Surfactant P20) was applied to the chip at 2 µL/min flow rate. For the kinetics measurements, 20 nM biotinylated hu-CD96-Fc and cy-CD96-Fc was captured at 10 µL/min to achieve ~50 response units in the second flow cell (FC2). FC1 was kept as a reference. Next, 4-fold serial dilutions of IgG in HBS-P buffer (0.01 M HEPES pH 7.4, 0.15 M NaCl, 0.005% surfactant P20) from low (3.125 nM) to high (200 nM) concentration were injected (flow rate: 10 µL/min) at 37° C. The sensorgram was recorded and subject to reference and buffer subtraction before evaluating by BIACORE® 8K Evaluation Software (version 1.1.1.7442). Association rates ($kon$) and dissociation rates ($koff$) were calculated using a simple one-to-one Langmuir binding model. The equilibrium dissociation constant (K_D) value was calculated as the ratio of $koff/kon$.

For another test, the target named is T4, cy-CD96 Fc (cynomolgus monkey, biotinylated in Table 16).
T4 construct: also called biotinylated cy-CD96-Fc
As to the kind of experiment: SPR 37C, biotin-CD96-Fc captured, IgG analyte. As to the method: as §2

Chain of huCD96D1-Fc (human) (chain, as listed by the source limits assumed): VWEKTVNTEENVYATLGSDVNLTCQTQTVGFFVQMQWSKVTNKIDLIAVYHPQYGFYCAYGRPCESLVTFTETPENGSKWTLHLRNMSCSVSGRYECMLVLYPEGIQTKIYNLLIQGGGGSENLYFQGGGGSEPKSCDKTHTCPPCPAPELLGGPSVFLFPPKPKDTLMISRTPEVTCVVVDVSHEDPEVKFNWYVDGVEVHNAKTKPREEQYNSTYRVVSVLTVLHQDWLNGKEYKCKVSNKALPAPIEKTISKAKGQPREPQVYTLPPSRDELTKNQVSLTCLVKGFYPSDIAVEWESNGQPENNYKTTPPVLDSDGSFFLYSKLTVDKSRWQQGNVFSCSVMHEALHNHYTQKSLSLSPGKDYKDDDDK

B1: 7E5, purified hybridoma antibody (antibody, V domains shown)
VH: QVQLKESGPGLVAPSQSLSIICTVSGFSLTNYGIHWIRQPPGKGLEWLGIIWAGGSTNYNSALMSRLTISKDNSKSQVFLKMNSLQTNDTAIYYCARVSMMGFAYWGQGTLVTVSA
VL: QAVVTQESALTTSPGETVTLTCRSSTGAVTTSNYANWVQEKPDHLFTGLIGGTNNRAPGVPARFSGSLIGDKAALTITGAQTEDEAIYFCSLWYGSHWVFGGGTKLTVL
notes: murine hybridoma IgG
Take B1: the “% positive” value in test [1] was determined as 37.1%; in test [2], 44.1%.

B2: mAb1.v7 IgG (humanized 12F8) (antibody, V domains shown)
VH: EVQLVQSGAEVKKPGASVKVSCKASGFTFTNNWMHWVRQAPGQGLEWIGMIHPNSGITNINEKFKNRVTMTTDTSTSTAYMELRSLRSEDTAVYYCRSDGTYEGYFDYWGQGTLVTVSS
VL: DIQLTQSPSSLSASVGDRVTITCKASQNVGTAIVWYQQKPGKAPKVLIYSASTRYTGVPSRFSGSGSGTDFTLTISSLQPEDFATYYCQQYSSSPLTFGQGTKVEIKG
notes: human IgG1 N297G
With B2, the “% positive” value in test [1] was 27.3%; in test [2], 17.7%. For the same molecule, in the test with huCD96D1-Fc, the binding result is recorded as “binds”.

B3: mAb1.v7.NGS9 IgG (antibody, V domains shown)
VH: EVQLVQSGAEVKKPGASVKVSCKASGFTFTNNFMHWVRQAPGQGLEWIGMIHANSGITNINEKFKNRVTMTTDTSTSTAYMELRSLRSEDTAVYYCRSDGVYEGYFDYWGQGTLVTVSS
VL: DIQLTQSPSSLSASVGDRVTITCKASQNVGTAIVWYQQKPGKAPKVLIYSASTRYTGVPSRFSGSGSGTDFTLTISSLQPEDFATYYCQQYSSSPLTFGQGTKVEIKG
notes: human IgG1 N297G
For B3, in the test with hu-CD96 Fc, the Kd came out at 0.2 nM, the koff came out at 5.42e-05 s⁻¹ and the kon is 266000 M⁻¹ s⁻¹. Also, in the test with cy-CD96 Fc, binding was characterised by a dissociation constant (Kd) of 2.88 nM, the koff came to 0.000734 s⁻¹ and the kon worked out at 255000 M⁻¹ s⁻¹.

B4: mAb1.v7.NGS10 IgG (antibody, V domains shown)
VH: EVQLVQSGAEVKKPGASVKVSCKASGFTFTNNFMHWVRQAPGQGLEWIGFIHANSGITNINEKFKNRVTMTTDTSTSTAYMELRSLRSEDTAVYYCRSDGIYEGYFDYWGQGTLVTVSS
VL: DIQLTQSPSSLSASVGDRVTITCKASQNVGTAIVWYQQKPGKAPKVLIYSASTRYTGVPSRFSGSGSGTDFTLTISSLQPEDFATYYCQQYSSSPLTFGQGTKVEIKG
notes: human IgG1 N297G
In the test with hu-CD96 Fc, B4 returned a Kd of 0.01 nM, a koff of 1.84e-06 s⁻¹ and a kon of 144000 M⁻¹ s⁻¹. Further, in the test with cy-CD96 Fc, binding was characterised by a dissociation constant (Kd) of 0.49 nM, the koff was 0.000374 s⁻¹ and the kon turned out to be 767000 M⁻¹ s⁻¹.

B5: mAb1.v7.NGS11 IgG (antibody, V domains shown)
VH: EVQLVQSGAEVKKPGASVKVSCKASGFTFTNNFMHWVRQAPGQGLEWIGFIHANSGITNINEKFKNRVTMTTDTSTSTAYMELRSLRSEDTAVYYCRSDGVYEGYFDYWGQGTLVTVSS
VL: DIQLTQSPSSLSASVGDRVTITCKASQNVGTAIVWYQQKPGKAPKVLIYSASTRYTGVPSRFSGSGSGTDFTLTISSLQPEDFATYYCQQYSSSPLTFGQGTKVEIKG
notes: human IgG1 N297G
In the test with hu-CD96 Fc, B5 yielded a Kd of 0.08 nM, a koff of 1.38e-05 s⁻¹ and a kon of 173000 M⁻¹ s⁻¹. In the test with cy-CD96 Fc, this molecule had a Kd of 1.52 nM, an off-rate constant (koff) of 0.000513 s⁻¹ and a kon of 338000 M⁻¹ s⁻¹.

B6: 9H4, purified hybridoma antibody (antibody, V domains shown)
VH: EVQLLETGGGLVKSGGSLKLSCAASGFTFSDYYMYWVRQTPEKRLEWVAAISDDGTYTYYPDSVKGRFTISRDNANNYLYLQMSSLKSEDTAIYYCAKAGSYDYFDVWGAGTTVTVSS
VL: DIVLTQSPASLAVSLGQRAIISCKASQSVTFADTGLMHWYQQKPGQQPKLLIYRASNLEVGVPTRFSGSGSGTDFTLNIHPVEEEDVATYYCQQSREYPWTFGGGTKLEIK
notes: murine hybridoma IgG
Take B6: the “% positive” value was 28.5% in test [1] and 24.1% in test [2].

B7: h10G1 IgG (humanized 10G1) (antibody, V domains shown)
VH: EIQLVQSGSELKKPGASVKVSCKASGYPFTTYGMSWVRQAPGQGLEWMGWINTDSGVPTYADDFKGRFVFSLDTSVSTAYLQISSLKAEDTAVYFCARNIYYGWGNFDYWGQGTLVTVSS
VL: EIVMTQSPDFQSVTPKEKVTITCRASQDIYRNLHWYQQKPDQTPKLLIKHASDSISGIPSRFSGSGSGTDFTLTINSLEAEDAAAYYCLQGYSMPYTFGGGTKVEIKG
notes: human IgG1 N297G
For B7, the binding result with huCD96D1-Fc was “binds”. In the test with hu-CD96 Fc, this molecule yielded a Kd of 0.64 nM, a koff of 0.000393 s⁻¹ and a kon of 612000 M⁻¹ s⁻¹. In addition, in the test with cy-CD96 Fc, binding was put at a Kd of 1.13 nM, the koff was found to be 0.00789 s⁻¹ and the kon was 6.99e+06 M⁻¹ s⁻¹.

B8: 10G1 (clone 10G1.3G8), purified hybridoma antibody (antibody, V domains shown)
VH: QIQLVQSGPELKKPGETVKISCKASGYPFTTYGMSWVKQAPGKGLKWMGWINTDSGVPTYADDFKGRFAFSLETSANTAYLQINSLKNEDAATYFCARNIYYGWGNFDYWGQGTILTVSS
VL: DILMTQSPTTLSVTPGETVSLSCRASQDIYRNLHWYQQKSQGTPRLLIKHASDSISGIPSRFTGSGSGTDFTLSINSVKPEDEGIYYCLQGYSMPYTFGGGTKLEIK
notes: murine hybridoma IgG
As for B8, the “% positive” value came out at 48.1% in test [1] and 25% in test [2].
